Test: yeast display, Sf9 membrane polyspecificity reagent, FACS + sequencing; frameworks hold sequencing errors
In short: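 In a synthetic yeast display library (Saccharomyces cerevisiae BJ5465), nanobody expression was induced with galactose for 36–48 hours. FACS gates were set low and high (top ~1%) using anti-HA fluorescence for expression and streptavidin fluorescence for binding of the Sf9 membrane reagent. Each polyreactivity label is drawn from the gate of origin.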

Row | Sequence | polyreactivity (PSR sort gate)
1 | QVQLVESGGGLVQAGGSLRLSCAASGRIFLYYAMGWYRQAPGKERELVAAITRSGGTTYYADSVKGRFTISRDNAKNTVYLQMNSLKPEDTAVYYCAALGQYSRADYEYWGQGTQVTVSS | high polyreactivity
2 | QVQLVESGGGLVQAGGSLRLSCAASGRIFLYYAMGWYRQAPGKERELVAGISTGGSTNYADSVKGRFTISRDNAKNTVYLQMNSLKPEDTAVYYCAVVDVEEHVGHWGQGTQVTVSS | low polyreactivity
3 | QVQLVESGGGLVQAGGSLRLSCAASGRIFMPYAMGWYRQARGKERELFAAITSTGGSTYYADSVKGRFTISRDNAKNTVYIQMNSQKPEDTAVYYCNARRGYQPHRRDYWGQGTQVTLSS | low polyreactivity
4 | QVQLVESGGGLVQAGGSLRLSCAASGRIFNANAMGWYRPAPGKESELVAAISSSGGSTYYSDSVKGRFTISRDNAKNTVYLHMNSLKPEDTAVYYCKDEWGWRYSSDFDYWGQGTQVTVSS | low polyreactivity
5 | QVQLVESGGGLVQAGGSLRLSCAASGRIFNAYAMGWYRQAPGKERELVATITGSGGRTHYADSVKGRFTISRDNAKNTVYLQMNSLKPEDTAVYYCAATAQYYHYHLAKYDYWGQGTQVTVSS | low polyreactivity
6 | QVQLVESGGGLVQAGGSLRLSCAASGRIFNHYAMGWYRQAPGKERELVASITSGAGTNYADSVKGRFTISRDNAKNTVYLQMNSLKPEDTAVYYCNADLYDYYYSDGDYWGQGTQVTVSS | high polyreactivity
7 | QVQLVESGGGLVQAGGSLRLSCAASGRIFNLYVMGWYRQAPGKERELVATISSGGSTNYADSVKGRFTISRDNAKNTVYLQMNSLKPEDTAVYYCAAREWRSFDYWGQGTQVTVSS | low polyreactivity
8 | QVQLVESGGGLVQAGGSLRLSCAASGRIFNLYVMGWYRQAPGKERELVATISSGGSTNYADSVKGRFTISRDYAKNTVYLQMNSLKPEDTAVNYCAKPYIVYYTMDYWGQGTQVTVSS | low polyreactivity
9 | QVQLVESGGGLVQAGGSLRLSCAASGRIFNRNAMGWYRQAPGKEREFVAAISRSGGTTYYADSVKGRFTFSRDNAKNTVYLQINSLKPEDTAFYYCNAVRYQTEVDYWGQGTQVTVSS | high polyreactivity
10 | QVQLVESGGGLVQAGGSLRLSCAASGRIFNRNAMGWYRQAPGKERELVAAITGSGGITYYADSVKGRFTISRDNAKNTVYLQMNSLKPEDTAVYYCAARAKFLSLPTYDYWGQGTQVTVSS | high polyreactivity
11 | QVQLVESGGGLVQAGGSLRLSCAASGRIFNRNAMGWYRQPPGKERELVAAISWSGTRTYYADSVKGRFTISRDNAKNTVYLQMNSLKPEDTAVYYCAAGASLYSYYGFLPYDYWGQGTQVTVSS | high polyreactivity
12 | QVQLVESGGGLVQAGGSLRLSCAASGRIFNRYAMGWYRQAPGKERELVAAITSGGSTYYADSVKGRFTISRDNAKNTVYLPMNSLKREDTAFYYCAALPRSNSYGYCGQGTQVTVSS | high polyreactivity
13 | QVQLVESGGGLVQAGGSLRLSCAASGRIFNTYAMGWYRQAPAKERELVAAITSSGGSTYYADSVKGRFTISRDNAKNTVYLQMNSLKPEDTAVYYCNAGSLHRRYYYEGDYWGQGTQVTVSS | high polyreactivity
14 | QVQLVESGGGLVQAGGSLRLSCAASGRIFNWYGMGWYRQAPGKERELVATISSSGDSTYYADSVKGRFTISRDNAKNTVYLQMNSLKPEDTAVFYCAKRARYKFGYWGQGSQVTVSS | high polyreactivity
15 | QVQLVESGGGLVQAGGSLRLSCAASGRIFNYNAIGWYRQAPGKERELVAAITCSGGSTYYADSVKGRFTISRDNAQYNVYLQMNSLKPEDTAVYYCIALITYSSDYWGQGTQVTVSS | low polyreactivity
16 | QVQLVESGGGLVQAGGSLRLSCAASGRIFPAYAMGWYRQAPGKERELVAAITGGGSTNYADSVKGRFTISRDNAKHTVYLQMNSLKPEDTAVYYCNAAVVWPNRQENDYWGQGTQVTVSS | low polyreactivity
17 | QVQLVESGGGLVQAGGSLRLSCAASGRIFPAYAMGWYRQAPGTERELVASIRRGGITYADSVKGRFTISRDNAKNTVYLQMNSLKPEDTAVYYCNADYRGWGYHMDYWGQGTQVTVSS | low polyreactivity
18 | QVQLVESGGGLVQAGGSLRLSCAASGRIFPGNAMGWYRQSPGKERELVAGISFSGGRTYYADSVKGRFSISRDNAKNTVYLQMNSLKPEDTAVYYCATKYQQHWWRYDYWGQGTQVTVSS | low polyreactivity
19 | QVQLVESGGGLVQAGGSLRLSCAASGRIFPGYAMGWYRQAPGKERELVAAISASGGSTYYADSVKGRFTISRDNAKNTVYLQMNSLKPEDTAVYDCNAVYRLIRFDYWGQGTQVTVSS | high polyreactivity
20 | QVQLVESGGGLVQAGGSLRLSCAASGRIFPGYAMGWYRQAPGKQRELVAGISNDASTNYADSVKGRFTISRDNAKNTVYLQMNSLKPEDTAVFYCAAEISYLSVPRYDYWGQGTQVTVSS | low polyreactivity
21 | QVQLVESGGGLVQAGGSLRLSCAASGRIFPHNAMGWYRQAPGKERELVAAIRFSGGNTYYADSVKGRFTISRDNAKNTVYLQLNSLKPEDTAVYYCFVYGYVPYNYWGQGTQVTVSS | low polyreactivity
22 | QVQLVESGGGLVQAGGSLRLSCAASGRIFPKYAMGWYRQAPGKERELVAAISSSGGSTYYADSVKGRFTISRDNAKNTVYLQMNSLKPEDTAVYYCAAEQYSYGYTIYEYWGQGTQVTVSS | high polyreactivity
23 | QVQLVESGGGLVQAGGSLRLSCAASGRIFPLNAMGWYRQAPGKERELVAAIRNGGRTNYADSVKGRFTISPDNAKNTVYVQMNSLKPEDTAVYYCSFTLSSVLQYDSWGQGTQVTVSS | low polyreactivity
24 | QVQLVESGGGLVQAGGSLRLSCAASGRIFPLYAMGWYRQAPGKERELGAAISSGGTTYYADSVKGRFTISRDNAKNTVYLQMNSLKPEDTAVYYCARRPAQRWGRFDYWGQGTQVTVSS | low polyreactivity
25 | QVQLVESGGGLVQAGGSLRLSCAASGRIFPSYTMGWYRQAPGKERELVAGITKSGSSTYYADSVKGRFTISRDNAKNTVYLQMNSLKPEDTAVYYCAAVYGNPSYRYGYWGQGTQVTVSS | high polyreactivity
26 | QVQLVESGGGLVQAGGSLRLSCAASGRIFPTNAMGWYRQAPGKERELVASIDSGGSTKYADSVKGRFTISRDNAKNTVYLLMNSLKPEDTAVYYRALQVLNYDYWGQGTQVTVSS | low polyreactivity
27 | QVQLVESGGGLVQAGGSLRLSCAASGRIFPTYAMGWYRQAPGKERELVAGITSGGRTNYADSVKGRFTISRDNAKNTVYLQMNSLKPEDTAVYYCATVSQQSRSLGIDRIYYWGQGTQVTVSS | high polyreactivity
28 | QVQLVESGGGLVQAGGSLRLSCAASGRIFPVNAMGCYRQAPGKEREFVSAIRGTGTSTYYADSVKGRFTISRDNAKNTVYLQMNSLKPEDTAVYYCAARGYVQYQGQNVNTFDYWGQGTQVTVSS | low polyreactivity
29 | QVQLVESGGGLVQAGGSLRLSCAASGRIFPVNAMGWYRQAPGKERELVATISSGDITNYADSVKGRFTISRDNAKNTVYLQMNSLKPEDTAVYYCAADYTWRAWTYYGIKYNYWGQGTQVTVSS | low polyreactivity
30 | QVQLVESGGGLVQAGGSLRLSCAASGRIFPVYAMVSYRQAPGKERELVAAISKRDGSTSYADSVKGRFTISRDNAKNTVYLQMHSLKPEDTAVYYCNVLGYGSSYDYWGQGTQVTVSS | low polyreactivity

From the nanobody polyreactivity screen of Harvey et al. (2022)
